To fix the notation:
B1: Arf-GAP with dual PH domain-containing protein 1 (Homo sapiens), O75689 (parent)
chain: MAKERRRAVLELLQRPGNARCADCGAPDPDWASYTLGVFICLSCSGIHRNIPQVSKVKSVRLDAWEEAQVEFMASHGNDAARARFESKVPSFYYRPTPSDCQLLREQWIRAKYERQEFIYPEKQEPYSAGYREGFLWKRGRDNGQFLSRKFVLTEREGALKYFNRNDAKEPKAVMKIEHLNATFQPAKIGHPHGLQVTYLKDNSTRNIFIYHEDGKEIVDWFNALRAARFHYLQVAFPGAGDADLVPKLSRNYLKEGYMEKTGPKQTEGFRKRWFTMDDRRLMYFKDPLDAFARGEVFIGSKESGYTVLHGFPPSTQGHHWPHGITIVTPDRKFLFACETESDQREWVAAFQKAVDRPMLPQEYAVEAHFKHKP

The assay covers variants of B1. The conditions noted are these: with ki13b_human KIF13B.
In the case of Y211G, the “effect of a mutation on the interaction” value was “disrupting interaction strength”.
With Y211R the entry was “disrupting interaction strength”.

For the origin of these results see IntAct's records for PubMed 21057110.
